± gives the uncertainty stated by the source.
Test: amyloid nucleation score (Sup35N fusion, yeast selection) (log enrichment); library NNK1; higher = more nucleation; inactive = no reads after selection
In short: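 The nucleation score, computed with DiMSum, is the log enrichment of output over input reads, centred on the mode score of non-aggregating sequences. Sequences with under 100 input reads were dropped. Reads were generated by Illumina sequencing of plasmid inserts from psi-negative yeast with Sup35N fused to peptides of 20 random codons, induced with 100 μM copper sulfate for 24 hours and grown 7 days at 30°C on medium lacking adenine and uracil.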

Substance | amyloid nucleation score
CKMNYGLVLAGSLGVGSGQD | 0.317 ± 0.42
VRHSAIRGLHWSGRILRCGV | 1.01 ± 1.1
SSMMLDYCRSYCANISTKCQ | 0.675 ± 0.24
IVFFWMMLVGLNRLGVNRVG | -0.846 ± 1.7
NMLAQSRSSVIAPLRRVWPV | 0.889 ± 0.77
YGSSAL | -0.419 ± 0.23
SCFTTF | -1.54 ± 1.2
ILREQNSLDTSRFYRGRSLV | 0.187 ± 0.65
IYYRTMYYMVVSSIN | 0.394 ± 0.65
YSCFSECYTKMSHTLSKNNL | 2.11 ± 0.32
SELGVSSVRLERAFILGSWT | -1.63 ± 1
HIMRDV | -1.13 ± 1.4
KAMLNNKWHLCSHVRTDHAV | 0.172 ± 0.32
LNSIMQIQVWIFTLEMMSPM | -1.07 ± 0.98
NYCFLNQDFCD | 3.61 ± 0.2
RTLLSFNRDVSFEGQPPGWL | 0.352 ± 1
VFLLKDRNTTCLWKSVIQQM | 0.494 ± 0.34
IYFVIGYVNVCWGSATEDMT | 5.46 ± 0.084
VLSYL | -0.248 ± 0.38
TWCCYCFLRVFFEERE | -0.298 ± 0.33
KGLCDNVMDLVRLKGGSEAG | 0.443 ± 0.42
RQVRMGFPGFWFMVIDYCRS | 0.499 ± 0.39
VYRIWSSSGNYKEVYAHRAL | 0.947 ± 0.93
LRYLGMMVRREKIEVINLNY | 0.329 ± 1.4
GVQWKLIFIGQCAVAVAWLA | -2.05 ± 1.8

Substance | amyloid nucleation score
DGGLCFLSMTTIIGGDTLDR | 0.018 ± 0.34
SSVLVLHYRTSG | 2.58 ± 0.09
HVLADHYTMRGTNFVGYFHL | 4.88 ± 0.069
GVFRLMDRNNI | 0.653 ± 0.61
LISRIS | 0.303 ± 1
WEKNFKIGESRCSV | -0.554 ± 1.1
KIGLPGLCVW | 0.063 ± 0.54
DTAFMNMMLWARNYCWFSVQ | inactive
RRYVICNYCLYSRV | 1.12 ± 0.33
YIDIVGSSW | 4.83 ± 0.07
SSFQIRVSVLRRHCISGLIY | 1.01 ± 0.79
FINDYMIQYSLHLQVLMST | 3.95 ± 0.074
QRKYNDLFWLTSPFSQSMWM | 0.997 ± 1.1
NFFFRMNIN | 2.18 ± 0.39
DKFLRWVNNVCFKSWTAIAP | 0.609 ± 0.57
HWCCIKSVGCIWIRKSVTRC | 0.204 ± 0.43
TDFPELWSNLFQPNGFRYGL | 0.114 ± 0.92
MYAFASSKYEHIS | 0.53 ± 0.32
IYMVGAEPVRERDIVFVPTL | 1.24 ± 0.98
CILLVFEDMWVSIV | -0.53 ± 0.36
VNVPHKTWIPDGDLRYYLTL | -0.891 ± 0.85
SCYGEFEPFRESRMGRSNLA | 0.538 ± 0.75
LLNLHGSLMYLPSDLLGSHS | 0.156 ± 0.56
VLEWRGPF | -0.239 ± 0.42
INRSSVESLVLTDLKHWTSG | 0.504 ± 0.49

Substance | amyloid nucleation score
SYLFVWFTSLLSDPQ | -0.716 ± 1.2
HFFDCHNSIEVSLISSCVCV | 3.97 ± 0.065
ARHPECQSCSWRYCLYVVHC | inactive
SGINLLFVFS | 2.95 ± 0.25
TVVESRTPILVYFMGCRVTY | 3.31 ± 0.11
IFNML | -0.083 ± 0.93
DRSRVLSSGETGYDIEVGQS | -0.033 ± 0.45
DRFLCGWSLPSC | -0.656 ± 0.61
SSCNRRSHKP | -0.471 ± 0.54
ALGVHR | 1.76 ± 0.61
KAVYLRVRGTHCVNNVALWK | 3.43 ± 0.18
CVVRVWVYRGGKYVYLEKAP | -1.48 ± 1.4
LMISGPYWR | -0.142 ± 0.56
WISFPLV | 0.046 ± 0.48
ISWVSPDLVLSYPVYQPDGL | 1.93 ± 0.23
CSNLM | -0.675 ± 0.66
HKCWVDGIVY | 0.577 ± 0.48
FKVVF | -0.909 ± 1.9
HWTYWIRI | -0.084 ± 1.6
ACANLKSGIFKRFFTSCSGT | -0.959 ± 0.65
LIGIVKGTTVSRMGNTVIDR | inactive
LVQESRHGLIRIRRVLLRIS | -0.252 ± 0.52
FCLYISTIDID | 0.556 ± 0.59
YKTEHNRSIDLLGISSSSFL | -0.322 ± 1
WWVNL | 0.247 ± 0.3

Substance | amyloid nucleation score
LSGPCNFYQHSVSWCLCTYA | 0.764 ± 0.88
CGEIENRMVTEAVTALLLYD | 0.034 ± 0.41
GRLIGDSWLGYTKSGPGRKR | inactive
LAWYFTPFVDHS | 1.13 ± 0.84
HIKASDFIW | -0.333 ± 0.31
GKYFLSICHDT | 0.033 ± 0.36
SYKGFRSGKVWCFNEASYTS | 1.18 ± 0.45
GVSMVGGHATLLG | -0.206 ± 1.2
VSLLVSICLLRLSLVSI | 0.259 ± 0.58
FFVKMHIFSFFQVATVVYMH | 0.043 ± 0.33
FVFSGFYT | 0.353 ± 0.21
VDLISWLVYEKVMSRMNIYN | -0.001 ± 0.4
MCDVERCRS | inactive
ASYRKCLLCIRLNC | -0.753 ± 0.86
EHFMSTCKPPDGE | 0.927 ± 0.84
ILHFWLTYK | 4.63 ± 0.1
VEGLEDGVWR | 0.876 ± 0.38
WISHSVSLFVSVLGMWMSRD | -2.09 ± 2.4
TQFEFFWVPKRHSMVHNCMN | -0.337 ± 0.31
DDRLLCI | -1.85 ± 2.1
GGRKKQLLDNYKGTYLVARI | -0.096 ± 1.1
VVSYWTHYPNKSLSWASWAA | -0.671 ± 1.2
AQSALLKS | -1.22 ± 1.2
FFVVMVIDNKHPQQENSRIR | 1.74 ± 0.34
REVWRLFILSRVVGYKVIL | 0.142 ± 0.22

Substance | amyloid nucleation score
CFEFDPFMNMVKSCWCCQVA | -0.281 ± 0.93
LVFKLLVLDHKSFGLLMVDS | -0.355 ± 0.63
NSAPDP | -0.948 ± 2.4
ATLGDSEEYRLAFGLPLYCR | inactive
CQQVLWS | 0.039 ± 0.79
IAILNLDNLGGYGCNCFHYF | 4.23 ± 0.13
YCCDDDGKFAWNECWDDTAR | 0.102 ± 0.21
ITGFAPVRVVCEYLS | 0.182 ± 0.6
RKDVLEGADSMTMVRRSSLF | -0.286 ± 0.35
DFVRRSNRYRYIVKIV | 0.203 ± 0.39
PFSVWSPPMMDPVHNIFWVR | -0.203 ± 0.49
DNVCRYGRKCWKRERESGQT | 0.105 ± 0.42
DVSRQFYFDYYNIKGLNITK | 0.536 ± 0.79
YDLNYKDCSLRSVSSVGLQC | 0.099 ± 0.19
SGSINENVKYSDTLVWLWKM | 4.92 ± 0.055
TLFCYADMWYNLYHRIVKVR | 1.52 ± 0.48
GVTYKPYGVSNW | -0.616 ± 0.69
ESTSYCKSDYLVRFVFEDGL | -0.294 ± 0.39
LSRDHCKNLNLNP | -0.084 ± 1.1
NSNLVFFRQYIYTVLYTNSF | 5.817 ± 0.048
VNSSKFKRVIYLV | -0.453 ± 0.27
CVNKPLNGHLANMSWRGY | 1.15 ± 0.57
YLLYEVSVLNYRPL | -0.285 ± 0.32
YQWFMYVF | 4.61 ± 0.11
NLVAAYRY | 0.146 ± 0.45

Substance | amyloid nucleation score
CVLRMNVFDSKGFWVGYRRD | 0.602 ± 0.41
KGWLKTGVYGHVSFVGNIME | 0.467 ± 0.75
DYDIWDAMPAQFQRITMYSV | -0.243 ± 0.36
FGYRMAYGSHVFVHSYRTEP | 2.42 ± 0.24
GCYSQNICCVTCIKRRSIVS | -1.02 ± 0.69
HLGLSNPFMMSFHV | -0.189 ± 0.34
SLDLFSIKATRSDWSGFLRT | -0.613 ± 0.94
TFRFSGYSLNISFKNCEHYV | inactive
RDIYRVYNV | -1.05 ± 0.72
SCLIFVSHSTEGYYSTPTFP | 2.26 ± 0.26
CSAASVCPGD | -0.116 ± 1.5
IYTLGKKGMNHHDVGQWLFT | 1.55 ± 0.5
CHVQMSFNGLRYNFHTIFFI | 1.2 ± 0.74
PIKEVPNTSRLLFSVCMKWH | 0.504 ± 0.74
QDGLGLTDAVRRTGFVGRTH | 0.197 ± 0.86
RGFWLERCSWTF | -0.003 ± 0.37
SGKPYLLGCTFSSVTLCPQV | -0.227 ± 0.38
RAHVLLLFMNCRRCKQTMIR | -0.88 ± 1.1
KKRPPAPSMEVRLGARMVAG | 0.324 ± 1
MSAGIVFIKQFVCS | 3.25 ± 0.12
WKYVTLELIWWTTLVTAWGT | 1.02 ± 0.8
HVLTQRRRMSFTVTRYHKRI | 1.1 ± 0.52
FGWRISILLVPHRLFRGLPQ | -0.85 ± 1.9
ILSPRVPINRICAVEQRRGI | -0.952 ± 0.83
FDRFCFIIIVQYSFHG | 1.35 ± 0.76

Substance | amyloid nucleation score
RWRKVGIKEGLIMLESGVSR | -0.921 ± 2.4
MEIRYYFVFEEDGRVFEGGT | 0.025 ± 0.43
RMMSVGALGQG | 0.323 ± 0.76
HVVVHDGSTQLWDARVRKWP | 0.558 ± 0.64
FGPGCCIFL | 7.481 ± 0.054
SRVNCYSSHSFSKYGRVGKS | -0.004 ± 0.59
CCRVISIWG | 0.115 ± 0.54
NPTNVSVWGTRGPGCVDYWY | -0.304 ± 0.41
DLVAVQESWTLYSLVPQLFY | -0.103 ± 0.4
MYFFGQYVCYYWEH | 7.381 ± 0.058
DLTGKVRYQSVLPFVASPSM | 0.11 ± 0.62
MSRCLIDSIEIFHWTGGRYA | -0.386 ± 1.2
VSWHHLVLLKGRLLEVSLSS | -0.158 ± 0.28
VSYTVSFSFFLFLFNWHSYV | 0.147 ± 0.65
WMDNTSHRFESCEV | 0.635 ± 0.55
RRYEFKRLGSMSDGVTLRSM | -0.759 ± 0.5
LRNVYMCVQWGFMVETGASC | 3.35 ± 0.16
NRFYL | 0.597 ± 0.4
IISKGSWSKSTDFGGLM | -1.83 ± 1.7
WRYRRCSYY | 0.781 ± 0.47
VCGVRMVLALSRFVLSAINN | 0.177 ± 0.65
GQLLCWVASNYEGFNWVYKI | -0.161 ± 0.53
CCSTSADIHSARNDVWSYSE | -0.271 ± 0.88
LAWMWYQGVSLRNKGGGMFY | -0.659 ± 1

Reference: the supplement of paper PMC12042874
